Test results: article PMC3316156 (Biochemical Journal, 2012)

How the values were obtained:
cross-linking = target: the molecule itself; test: cross-linking
[1] = substrate: N[C@@H](CCS)C(=O)O; test: cystathionine production by LC-MS/MS, non-linear fit; format: biochemical, Caenorhabditis elegans; settings: co-substrate serine, 100 mM Bis/Tris pH 8.0, 25 °C
[2] = substrate: N[C@@H](CO)C(=O)O; test: as above; format: biochemical, Caenorhabditis elegans; settings: co-substrate homocysteine, 100 mM Bis/Tris pH 8.0, 25 °C

B1: human 45CBS (C-terminally truncated human cystathionine β-synthase, residues 1-413) (domain or fragment, UniProt P35520 1-413, looked up)
chain: MPSETPQAEVGPTGCPHRSGPHSAKGSLEKGSPEDKEAKEPLWIRPDAPSRCTWQLGRPASESPHHHTAPAKSPKILPDILKKIGDTPMVRINKIGKKFGLKCELLAKCEFFNAGGSVKDRISLRMIEDAERDGTLKPGDTIIEPTSGNTGIGLALAAAVRGYRCIIVMPEKMSSEKVDVLRALGAEIVRTPTNARFDSPESHVGVAWRLKNEIPNSHILDQYRNASNPLAHYDTTADEILQQCDGKLDMLVASVGTGGTITGIARKLKEKCPGCRIIGVDPEGSILAEPEELNQTEQTTYEVEGIGYDFIPTVLDRTVVDKWFKSNDEEAFTFARMLIAQEGLLCGGSAGSTVAVAVKAAQELQEGQRCVVILPDSVRNYMTKFLSDRWMLQKGFLKEEDLTEKKPWWWHLR
stoichiometry N (cross-linking): 2

B2: CBS-1 (Caenorhabditis elegans) (protein)
chain: MIQNEVSATHGSTKKGITYNTILEAAQRPTPLVPLKKLKVEHQLQSDIYVKLEYLNIAGSLEDRTADKAFQFAEEIGVVRGDEVFVTAGGSAAISYATVAAVKGIKLTIYAPKGEFDLVDTVLHTLGVKTVELPFGTFAEARVQTDEAAQQKGVFSLNKFTTNAAFVANLQKTALEIEKAVNNKSIGKVGAVVIPLNTGAAAAGIAAYYKGIGEHGVRVVGVTCKKDTIPEMGLDLKNDLLQEYNVEKREVEEDEAYSFTRHLIGTEGIMAGPSSGAAVLEAIKLAKELPAGSTIVVVLMDGIRNYLRHFLDDDWITANKKDVVTRKDGPQPNSIYDPKVLVYDPTKLAGEWTQDPETKSWSHSEVEFNKFNPERPLVLDTVLDAIGKTPLVKLQHIPKAHGVKCNVYVKCEYMNAGGSTKDRIAKRMVEIAEKTGKPGKLVPGVTLIEPTSGNTGIGLSLASAVRGYKCIITMPKKMSKEKSIAMASLGSTIIRTPNEAGFDSPHSHIGVALRLKSEIQDAVVLDQYCNPGNPLAHYEETAEEIIYDMGDKHIDLVVLTAGTGGTVTGISRKIHERIPTAKVVGVDPHGSILAGPAETDIDFYEVEGIGYDFLPGTLDTSAIDYWAKSHDKESFLMARELIRSEGILCGGSSGCAVHYALEECKSLNLPAEANVVVLLPDGIRNYITKFLDDDWMNERHFLDA
Km [1]: 4.29 ± 0.97 mM | kcat [1]: 43.3 ± 4.33 s⁻¹ | kcat/Km [1]: 10000 M⁻¹ s⁻¹ | Km [2]: 5.57 ± 0.68 mM | kcat [2]: 48.1 ± 2.95 s⁻¹ | kcat/Km [2]: 8500 M⁻¹ s⁻¹
